Two substances from publication PMC3025356, “Mechanism of the Ca^2+-Dependent Interaction between S100A4 and Tail Fragments of Nonmuscle Myosin Heavy Chain IIA” (Journal of Molecular Biology, 2011) can be followed below.

Test [1] addresses S100A4 (wild type, full-length) (UniProt P26447). Nature of the test: fluorescence polarisation + other: stopped-flow fluorescence; K2 with Ca2+: anisotropy value corrected for the 35% quench of fluorescein, identical with k-2/k2 of the stopped-flow records; per S100A4 monomer. For orientation: In fluorescence polarisation assays a small probe gives low polarisation when free and higher when bound to something large.

For test [2] the target is unchanged. Nature of the test: fluorescence polarisation; as a1 but without Ca2+: EGTA added to 1 mM at the end of the titration.
For test [3] the target is unchanged. Nature of the test: fluorescence polarisation; fluorescein anisotropy; 0.1 μM F-M16^N titrated with S100A4; 20 mM NaCl, 10 mM Hepes, 1 mM Mg2+, 100 μM Ca2+, pH 7.5, 20 °C; apparent; 1:1 binding per S100A4 monomer assumed.
Test [4] shares this target. Nature of the test: stopped-flow fluorescence; 0.1 μM F-M16^N mixed with S100A4, fluorescein emission intensity, with Ca2+; kobs against [S100A4]; dissociation also by displacement with excess M32.
The target is the same in test [5]. Described as above. The source holds these as a separate data set.
For test [6] the target is unchanged. Nature of the test: fluorescence polarisation; competition: displacement of F-M16^N (5 μM) from S100A4 (5 μM) by increasing M32 or M16^N, with Ca2+; fit to a competitive single-site model with Kd of F-M16^N fixed at 2 μM.

Where two headings read alike, the source gives them in different places. Where only a bound is given, the exact number is not on record here.

Chain of S100A4 (wild type, full-length) (P26447 whole entry): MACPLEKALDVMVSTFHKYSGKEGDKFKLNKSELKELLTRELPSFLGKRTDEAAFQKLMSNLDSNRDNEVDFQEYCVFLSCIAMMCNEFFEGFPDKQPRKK

For orientation: koff means the first-order rate constant of dissociation. In general, kon refers to the second-order rate constant of association. A high value points to faster complex formation. With “F-M16^N, fluorescein-labelled M16^N myosin peptide (NM-MHC IIA D1908-R1923) (from UniProt P35579-1 1908-1923)”, the figures for the Kd in test [1], in test [2] and in test [3] were 1.3 µM, greater than 300 µM and 2 µM, respectively. In addition, the values for the koff in test [4] and in test [5] were 7.7 s⁻¹ and 6.2 s⁻¹, respectively. The substance also came in with a kon in test [5] of 4.9e+06 M⁻¹ s⁻¹.
In turn, “M16^N myosin peptide (NM-MHC IIA D1908-R1923) (from UniProt P35579-1 1908-1923)” registered a Kd in test [6] greater than 100 µM.
